# Test results: patent US20160311886A1, “Constructs Binding to Phosphatidylserine and Their Use in Disease Treatment and Imaging” (Board of Regents, The University of Texas System, priority 2005, published 2016)
# B1: Fc-mβ2GPI: Fc region of mouse IgG2a attached to full length mouse β2GPI (domains I-V); SEQ ID NO:19 (protein, listed as Mus musculus)
# chain: EPRGPTIKPCPPCKCPAPNLLGGPSVFIFPPKIKDVLMISLSPIVTCVVVDVSEDDPDVQISWFVNNVEVHTAQTQTHREDYNSTLRVVSALPIQHQDWMSGKEFKCKVNNKDLPAPIERTISKPKGSVRAPQVYVLPPPEEEMTKKQVTLTCMVTDFMPEDIYVEWTNNGKTELNYKNTEPVLDSDGSYFMYSKLRVEKKNWVERNSYSCSVVHEGLHNHHTTKSFSRTPGKTGGRICPKPDDLPFATVVPLKTSYDPGEQIVYSCKPGYVSRGGMRRFTCPLTGMWPINTLRCVPRVCPFAGILENGIVRYTSFEYPKNISFACNPGFFLNGTSSSKCTEEGKWSPDIPACARITCPPPPVPKFALLKDYRPSAGNNSLYQDTVVFKCLPHFAMIGNDTVMCTEQGNWTRLPECLEVKCPFPPRPENGYVNYPAKPVLLYKDKATFGCHETYKLDGPEEAECTKTRTWSFLPTCRESCKLPVKKATVLYQGMRVKIQEQFKNGMMHGDKIHFYCKNKEKKCSYTVEAHCRDGTIEIPSCFKEHSSLAFWKTDASELTPC
# B2: hβ2GPI: Human β2GPI purified from human plasma (protein)
# chain: GRTCPKPDDLPFSTVVPLKTFYEPGEEITYSCKPGYVSRGGMRKFICPLTGLWPINTLKCTPRVCPFAGILENGAVRYTTFEYPNTISFSCNTGFYLNGADSAKCTEEGKWSPELPVCAPIICPPPSIPTFATLRVYKPSAGNNSLYRDTAVFECLPQHAMFGNDTITCTTHGNWTKLPECREVKCPFPSRPDNGFVNYPAKPTLYYKDKATFGCHDGYSLDGPEEIECTKLGNWSAMPSCKASCKLPVKKATVVYQGERVKIQEKFKNGMLHGDKVSFFCKNKEKKCSYTEDAQCIDGTIEVPKCFKEHSSLAFWKTDASDVKPC
# Assays:
# [1] = system: cancer patients having progressive disease; conditions: human, in vivo; cited from earlier work
# [2] = in vivo; cited from earlier work
# [3] = Fc-mβ2GPI binding to PS-coated plates; conditions: cell culture supernatants #8 and #18
# Description: FIG. 20. Fc-mβ2GPI binds PS on PS-coated plates. In this binding assay, a microtiter plate was coated with PS and blocked with 1% OVA. Serial dilutions of Fc-mβ2GPI cell culture supernatants were performed in 1% OVA. #8 and #18 are two different clones of Fc-mβ2GPI. Binding was detected with anti-mouse IgG-HRP.
# Fc-mβ2GPI was able to bind to PS on PS-coated plates.
# [4] = Fc-mβ2GPI binding to phospholipids in 10% FBS
# Description: FIG. 21. Fc-mβ2GPI binds anionic phospholipids. This assay measures Fc-mβ2GPI binding to phospholipids in 10% FBS. The microtiter plates were coated with various lipids, as indicated, and blocked with 1% OVA. Serial dilutions of Fc-mβ2GPI cell culture supernatant were performed in 1% OVA. Binding was detected with anti-mouse IgG-HRP.
# ABAE cells = assay: Fc-mβ2GPI binding to cells with exposed PS; assay type: cell-based, bovine
# Description: FIG. 22A, FIG. 22B and FIG. 22C. Fc-mβ2GPI detects PS exposed on naturally apoptotic ABAE cells. 2×10^4 ABAE cells were seeded onto 8-well glass chamber slides in DMEM+10% FBS overnight at 37° C. The next day, cells were washed and incubated with 2aG4 (FIG. 22A), supernatant from Fc-mβ2GPI transfected CHO cells (FIG. 22B), or mock transfected cells (“control supernatant”, FIG. 22C). 2aG4 and Fc-mβ2GPI were detected with a FITC-labeled secondary antibody (green). The cytoskeletons and nuclei were counter-stained with Texas Red-labeled phalloidin and DAPI (blue), respectively. Arrows highlight apoptotic cells.
# FIG. 23A and FIG. 23B. Fc-mβ2GPI detects PS exposed on LPC-treated ABAE cells. 2×10^4 ABAE cells were seeded onto 8-well glass chamber slides in DMEM+10% FBS overnight at 37° C. The next day, cells were washed and incubated supernatant from Fc-mβ2GPI transfected CHO cells. Fc-mβ2GPI was detected with a FITC-labeled secondary antibody (green). The cytoskeletons and nuclei were counter-stained with Texas Red-labeled phalloidin and DAPI (blue), respectively. FIG. 23A and FIG. 23B each depict binding of Fc-mβ2GPI, seen as small pinpoints of green staining.
# [5] = system: ABAE cells with exposed PS; assay: Live-cell binding assay on LPC-treated endothelial cells; assay type: cell-based, bovine
# Description: Adult bovine aortic endothelial (ABAE) cells were maintained in DMEM supplemented with 10% FBS and 2 mM L-glutamine. ABAE cells were removed from subconfluent cultures by brief exposure to 0.25% trypsin/0.02% EDTA, and 8-well chamber slides were seeded with 2×10^4 cells/well. Following overnight culture, cells were washed gently with PBS and treated with 200 μM lysophosphatidylcholine (LPC) to induce PS exposure.
# PS exposure was determined by immunofluorescence staining. Cells were washed thoroughly in PBS, fixed in 4% paraformaldehyde (w/v), and incubated with a biotin-conjugated anti-mouse secondary antibody. Next, cells were incubated with FITC-conjugated streptavidin (Jackson Immunoresearch) to detect antibody binding. Cells were then permeablized with 0.1% Triton-X100 in PBS and counterstained with Texas Red-conjugated phalloidin (Molecular Probes, Eugene, Oreg.), and 4′, 6-diamidino-2-phenylindole (DAPI; Molecular Probes). Images were captured using a Coolsnap digital camera (Photometrics, Tucson, Ariz.) mounted on a Nikon microscope and processed with MetaVue software (Universal Imaging Corporation, Downingtown, Pa.).
# The area of antibody binding was determined using MetaVue image analysis software, which is able to quantify the number of illuminated pixels in an image. Images of FITC fluorescence were used to quantify antibody binding. Corresponding images of DAPI fluorescence were used to normalize the FITC images for the number of cells present in the field. A small FITC/DAPI ratio indicates a small antibody binding area, whereas a large FITC/DAPI ratio indicates a large binding area. The FITC/DAPI ratios were used to determine increases or decreases in antibody binding area relative to a basal amount of antibody binding under the selected conditions. Five images at 200× magnification were used for each analysis. Data are presented as average relative FITC/DAPI ratios with error bars representing the standard deviation.
# Cells were then washed, fixed, and stained with fluorescent markers to visualize binding of antibody to the cell surface.
# [6] = system: ABAE cells with exposed PS; assay: Binding of monomeric and dimeric hβ2GPI to LPC-treated cells; assay type: cell-based, bovine; conditions: 200 μM LPC, DMEM+10% FBS
# Description: FIG. 24A, FIG. 24B, FIG. 24C and FIG. 24D. An artificial dimeric β2GPI construct binds endothelial cells with exposed PS. ABAE cells were incubated for 30 min with 200 μM LPC in DMEM+10% FBS plus purified hβ2GPI-monomer (FIG. 24A), hβ2GPI-dimer (FIG. 24B), or a mutant hβ2GPI-dimer unable to bind lipid (FIG. 24C). Cells were then washed and incubated with anti-β2GPI to detect hβ2GPI monomers and dimers. […] Cells were then washed, fixed and stained with fluorescent markers. The cytoskeleton appears red, nuclei appear blue, and hβ2GPI-monomers and hβ2GPI-dimers appear green. FIG. 24D, the binding area of hβ2GPI-monomers and hβ2GPI-dimers was quantified using MetaVue software. All values are relative to the binding of hβ2GPI-dimers to non-LPC treated cells, which was set to one.
# In these studies, an artificial β2GPI dimer is used, which was generated by fusing hβ2GPI to the C-terminus of the apple 4 dimerization domain of factor XI (Lutters et al., 2001). […] Nonetheless, binding of this dimer to cells with exposed PS validates the use of Fc-β2GPI dimers to bind to PS-positive cells.
# ABAE cells were treated with LPC to induce PS exposure and incubated with purified hβ2GPI, hβ2GPI-dimer, or a mutant hβ2GPI-dimer containing a disrupted lipid binding domain. As expected, binding of the monomeric hβ2GPI to LPC-treated ABAE cells was negligible (FIG. 24A).
molecule,measurement,setting,value
"NC(=O)c1nnn(Cc2cc(Cl)c(C(=O)c3ccc(Cl)cc3)c(Cl)c2)c1N [CAI, carboxyamidotriazole]",patients with disease stabilization,[1],49%
monophosphoryl lipid A [MPL],dose shown to be safe for human use,[2],100 μg/m^2
B1,binding to PS on PS-coated plates,[3],bind to PS in a concentration-dependent manner
same,binding to phospholipids,[4],"binds to the anionic phospholipids PS, PA, PI and PG, but not to the neutral lipids, PC and SM"
same,binding to LPC-treated ABAE cells,ABAE cells,bind to PS exposed at the cell surface
same,staining of naturally apoptotic ABAE cells,ABAE cells,stain the apoptotic cells
B2,mediation of ch3G4 binding to ABAE cells with exposed PS,"[5]; 2 μg/ml, LPC",able to mediate binding
same,binding to endothelial cells with exposed PS,"[5]; 10% MS and LPC, absence of ch3G4",does not bind endothelial cells with exposed PS in the absence of ch3G4
same,binding to LPC-treated ABAE cells,[6],negligible
